Measured values published in paper PMC11754618, “Chemical tools to define and manipulate interferon-inducible Ubl protease USP18” (Nature Communications, 2025).

Tests used:
Settings in all cases: both partners purified
[1] = target: T1, His6-Mm.USP18 (46-368) (mouse, UniProt Q9WTV6 46-368); assay: covalent labelling by an activity-based probe (SDS-PAGE); recombinant USP18 (2 μM), USP5 (1 μM) or USP16 (0.45 μM) with Ac-Ubl-PA probes (10 μM), 3 h, room temperature; higher band on SDS-PAGE, SYPRO Ruby staining
T1 construct: ubiquitin-specific protease 18 (USP18), mouse, residues 46-368; Expressed as MBP-tev-His6-USP18 from pDest-795 (Addgene 161881 is the vector); the TEV site ENLYFQG was cut, His6 stays and serves for capture on the NTA chip; also called mouse USP18; recombinant mouse USP18; source: insect cells (baculovirus), purified (IMAC, TEV digest, second IMAC); not shown: MBP, N-terminal, cleaved; His6, …
T1 sequence (looked up): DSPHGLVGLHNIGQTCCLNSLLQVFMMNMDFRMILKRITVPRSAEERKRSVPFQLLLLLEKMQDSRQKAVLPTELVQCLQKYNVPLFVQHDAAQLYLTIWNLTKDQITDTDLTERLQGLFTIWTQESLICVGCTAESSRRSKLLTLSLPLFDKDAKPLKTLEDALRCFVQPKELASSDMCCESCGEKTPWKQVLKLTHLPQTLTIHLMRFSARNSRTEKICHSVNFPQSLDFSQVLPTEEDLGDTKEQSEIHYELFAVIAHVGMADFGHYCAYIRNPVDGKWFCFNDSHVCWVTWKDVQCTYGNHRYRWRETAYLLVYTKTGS

[2] = target: T2, His6-Hs.USP18 (16-372) (human, UniProt Q9UMW8 16-372); assay: as above
T2 construct: ubiquitin-specific protease 18 (USP18), human, residues 16-372; Expressed as MBP-tev-His6-USP18 from pDest-795 (Addgene 161881 is the vector); the TEV site was cut, His6 stays; also called human USP18; recombinant human USP18; source: insect cells (baculovirus), purified (IMAC, TEV digest, second IMAC); not shown: MBP, N-terminal, cleaved; His6, N-terminal, kept
T2 sequence (looked up): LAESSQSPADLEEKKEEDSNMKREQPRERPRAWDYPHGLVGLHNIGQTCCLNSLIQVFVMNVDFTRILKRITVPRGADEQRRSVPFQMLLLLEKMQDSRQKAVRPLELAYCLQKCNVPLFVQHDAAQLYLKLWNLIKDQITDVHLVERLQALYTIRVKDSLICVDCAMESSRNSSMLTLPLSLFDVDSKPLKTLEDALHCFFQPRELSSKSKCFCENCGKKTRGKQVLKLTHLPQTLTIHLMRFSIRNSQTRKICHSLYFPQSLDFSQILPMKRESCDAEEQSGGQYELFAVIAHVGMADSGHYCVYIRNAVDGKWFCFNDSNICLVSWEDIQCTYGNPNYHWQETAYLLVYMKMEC

[3] = target: T1, His6-Mm.USP18 (46-368); assay: SPR; BIAcore 3000; mouse and human USP18 immobilised via the N-terminal His6 tag on an NTA chip; 25 °C; 50 mM HEPES, 150 mM NaCl, 0.05 mM EDTA, 0.5 mM DTT, 0.01% P20, pH 7.5; 20 μL/min; Langmuir 1:1 model with drift
[4] = target: T2, His6-Hs.USP18 (16-372); assay: as above

B1: Ac-mISG15CTD[WT]-PA (domain or fragment, mouse)
chain: LSILVRNERGHSNIYEVFLTQTVDTLKKKVSQREQVHEDQFWLSFEGRPMEDKELLGEYGLKPQSTVIKHLRLRG
modifications: N-terminal acetyl; C-terminal propargylamine (PA) warhead replacing Gly155
notes: C-terminal domain of mouse ISG15, Leu80~Gly154; also called Ac-mISG15CTD-PA; WT probe; source: synthetic (solid-phase peptide synthesis), RP-HPLC purified
Does B1 bind [1]?
Result: binds

Does B1 bind [2]?
Result: binds

B2: Ac-mISG15CTD-OH (wild type) (domain or fragment, mouse)
chain: LSILVRNERGHSNIYEVFLTQTVDTLKKKVSQREQVHEDQFWLSFEGRPMEDKELLGEYGLKPQSTVIKHLRLRG
modifications: N-terminal acetyl
notes: C-terminal domain of mouse ISG15, Leu80~Gly154; also called Ac-mISG15CTD[WT]-OH; source: synthetic (solid-phase peptide synthesis), RP-HPLC purified
Does B2 bind [3]?
Result: binds

Does B2 bind [4]?
Result: binds
